Reference: the nanobody polyreactivity screen of Harvey et al. (2022)

Assay: yeast display, Sf9 membrane polyspecificity reagent, FACS + sequencing; frameworks hold sequencing errors
How it was run: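 Galactose induction of a Saccharomyces cerevisiae BJ5465 synthetic nanobody display library ran 36–48 hours. The cells were then stained for 1 hour at 4 °C with 10% biotinylated, detergent-solubilized Sf9 membrane reagent, pulled down on streptavidin microbeads and FACS-sorted into low and high (top ~1%) gates on expression and reagent-binding fluorescence. Labels for polyreactivity follow the gate of origin.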

| Sequence | polyreactivity (PSR sort gate) |
| --- | --- |
| QVQLVESGGGLVQAGGSLRLSCAASGSTFYYYAMGWYRQAPGKERELVAAITIGGSTNYADSVKGRFTISRDNAKNTVYLQMNSLKPVDTAVYYCAADYRITYARDFDYWGQGTQVTVSS | low polyreactivity |
| QVQLVESGGGLVQAGGSLRLSCAASGSLFFLYAMGWYRQAPGKDRELVAAISRTGSTYADSVKGRFTISRDNAKTTVYLQMNSVKPEDTAVYYCAAEYRYYWYGTMNYWGQCTQVTVSS | low polyreactivity |
| QVQLVESGGGLVQAGGSLRLSCAASGRIFRYYAMGWYRQAPGKERELVAAISSGVGNTYYADSVKGRFTISRDNAKNTVYVQMNSLKPEDTAVFYCKAKWRKFGTVRYDYWGQGTQVTVSS | high polyreactivity |
| QVQLVESGGGLVQAGGSLRLSCAASGYTFVIYAMGWYRQAPGKERELVAAITTIGGRTYYADSVKGRFTISRDNAKNTVYLQMNSLKPEDTAVYYCAADIRSYRLYDGGYWGQGTQVTVSS | low polyreactivity |
| QVQHVESGGGLVQAGGSLRVSCAASGFIFSAYAMGRYRKATGKERELVAAISSGGSTYYADSVKGRFTISRDNAKNTVYLQMNSLKPEDTEVYYCAAVYTGRYRYDYWGQGTHVTVSS | low polyreactivity |
| QVQLVESGGGLVQAGGSLRLSCAASGRTFTGYAMGWYRQAPGKERELVAAISRRGASTYYADSVKGRFTISRDNAKNTVYLQMNSLKPEDTAVYYCAAYLYGLWSVGRDYWGQGTQVTVSS | high polyreactivity |
| QVQLVESGGGLVQAGGSLRLSCAASGSTFTVNAMGWYREAPGKERELVAAITTSGGSTYYADSVKGRFTISRDNAENTVYFQMNSLKPEDTAVYYCNADGPWREVERPFRKEGNYWGQGTQVTVSS | low polyreactivity |
| QGQLVESGGGLVQAGGSLRLSCAASGSIFLGYAMGWYRQAPRKERELVAVITKSRGRTYYADSVKGRFTISRDNAKNTVYFQMNSLKPEDTAVYYCAKQPGSAYDYWGQGTQVTVSS | high polyreactivity |
| QVQLVESGGGLVQAGGSLRLTCAASGGIFRPNAMGWYRPAPGKERELVASIDDGDSTNYADSVKGPFTISRDNAKNTVSLQMNSLKPEDTAVYYFAAEQGYTVIYDYWGQGSQVTVSS | low polyreactivity |
| QVQLVESGGGLVQAGGSHRLSCAASGIIFYDNTMGWYRQAPGKERELVASITWRGGSTYYADSVKGRFTISRDNAKNTFYLQMNSLKPEDTAVYYCNADSSDDYDYWGQGTQVTVSS | low polyreactivity |
| QVQLVESGGGLVQAGGSLRLSCAASGSTFSFYAMGWDRQAPGKERELVAAIRAGTRTYYADSVKGRFTISRDNAKNTVYLQMNSLKPEDTAVYYCAATRRRYPYYYWGQGTLVTVSS | high polyreactivity |
| QDQHVESVGGLVQAGGSLRFSCAASGSTFTRYAMGWYRQAPGKERELVAAIDGGGGSTSYADSVKGRFTISRDNAKNTVYLQMNSLKPEDTAVYYCAAPLDTSSSIFDYWGQGTQVTVSS | low polyreactivity |
| QVQLVESGGGLVQAGGSLRLSCAPSGATFRRNAMGWYRQAPGKERELVAAITWRGGSTSYADSVKGRFTISRDNAKNTVYLQMNSLKREDTAVYYCAAVKGHSQVLSYGYWGQGTQVTVSS | low polyreactivity |
| QVQLVESGGGLVQAGGSLRLSCAASGLTFYSYAMGWYRQAPGKERELVAAISKRGTNTFYADSAKGRFTISRDNAKNTVYLQMNSLKPEDTAVYYCAVDLSDSDYYWGQGTQVTVSS | low polyreactivity |
| QVQLVESGGGLVQAGGSLRLSCAASGLTIVWYGMVWYRQAPGKERELVAAITRGGSTYYADSVKGRFTISRDNAKNTVYLQMNSLKPEDTAVYYCAATSTYRARFEYWGQGTQVTVSS | high polyreactivity |
| QVQLVESGGGLVQAGGSLRLSCAASGIFDYYGMGWYRQAPGKERELVAAITWNGGSTYYADSVKGRLTISRDNAKNTVYVQMNSLKPEDTAVYYCATTDWYHSPGYDYRGQGTQVTVSS | low polyreactivity |
| QVQLVESGGGLFQAGGSLRLSCAASGFIFRPYGMGWYRQAPGKERELVAAISWSGDRTYYADSVKGRFTISRDNAKNTVYLQMNSLKPEDTAVYYCAADGVTRDYDYWGQGNQVTVSS | low polyreactivity |
| QVQLVESGRGLVQAGVSLRISCAPSGRIFSGYAMGWYRQAPGKERELVAAITSSSGSTYYADSVKWRFTISRDNAKNTFYLQMISLKPEDTAVYYCAAEYVRLYWYTSDYWGQGTEVTVSS | low polyreactivity |
| QVQLVESGGGLVQAGGSLRLSCAASGSIFRPYAMGWYRQAPGKERELVAAISWRSGRTYYADSVKGRFTISRDNAKNTVYLQMNSLKPEDTAVYYCAADLASYAYRYDYWGQGTQVTVSS | high polyreactivity |
| QVQLVESGGGLVQSGGSLRLSCAASGSTVDDNAMGWSRQAPGQVMELVAAIDTSGGSTYADSVKGRFTISRYNAKNTVYLQMNSQKPEDTAVYYCAKPFSSNSWSHGYWGQGTQVTVSS | low polyreactivity |
| QVQLVESGGGLVQAGGSLRLSCAASGSIFYSNVMGWYRQAPGKERELVASITNGGGTYYADSVKGRFTISRDNAKNTVYLQMNSLKPEDTAVYYCAADPDRTAYDYWGQGTQVTVSS | low polyreactivity |
